± gives the uncertainty stated by the source.
Experiment: self-splicing fitness, log relative to wild type (ln ratio); higher = more splicing; Tetrahymena group I intron in knt gene, E. coli kanamycin selection, DiMSum; sequences stand for … in CUCUCU…GGAGGGAAAAGUUAUCAGGCAUGCACCUGGUAGCUAGUCUUUAAACCAAUAGAUUGCAUCGGUUUAAAAGGCAAGACCGUCAAAUUGCGGGAAAGGGGUCAACAGCCGUUCAGUACCAAGUCUCAGGGGAAACUUUGAGAUGGCCUUGCAAAGGGUAUGGUAAUAAGCUGACGGACAUGGUCCUAACCACGCAGCCAAGUCCUAAGUCAACAGAUCUUCUGUUGAUAUGGAUGCAGUUCACAGACUAAAUGUCGGUCGGGGAAGAUGUAUUCUUCUCAUAAGAUAUAGUCGGACCUCUCCUUAAUGGGAGCUAGCGGAUGAAGUGAUGCAACACUGGAGCCGCUGGGAACUAAUUUGUAUGCGAAAGUAUAUUGAUUAGUUUUGGAGUACUCGUGGUCG
Method in brief: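 Colonies from six replicate transformations of E. coli BL21(DE3) were pooled and amplicon-sequenced on an Illumina HiSeq 2500. The library placed an intron with all eight P1ex-region nucleotides randomised inside the knt kanamycin-resistance gene on pET-22b(+), and cells grew overnight at 37°C or 30°C on LB agar with or without 25 μg/mL kanamycin (plus 100 μg/mL carbenicillin, 50 μM IPTG, 0.2% rhamnose). Fitness is the DiMSum error-weighted combination of wild-type-normalised replicate fold changes, kanamycin versus none.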

Sequence | self-splicing fitness (ln) (30 °C) | self-splicing fitness (ln) (37 °C)
CACGAGCAAUAUUACGCGUC | -3.19 ± 0.32 | -1.52 ± 0.19
UCUAAGCAAUAUUACGAUUC | -3.14 ± 0.16 | -2.83 ± 0.23
CUAAAGCAAUAUUACGAUGU | -3.84 ± 0.18 | -2.58 ± 0.2
AAAGAGCAAUAUUACGCGGU | -3.49 ± 0.18 | -1.49 ± 0.16
GUGUAGCAAUAUUACGGUCU | -1.6 ± 0.2 | 0.619 ± 0.2
GGACAGCAAUAUUACGUACA | -1.06 ± 0.096 | 0.0922 ± 0.12
AGAGAGCAAUAUUACGUUUC | -2.27 ± 0.21 | -1.41 ± 0.23
CAAGAGCAAUAUUACGGCUA | -3.05 ± 0.31 | -1.97 ± 0.22
AUGAAGCAAUAUUACGCCGA | -0.724 ± 0.11 | -0.149 ± 0.15
GGUGAGCAAUAUUACGUGCA | -0.986 ± 0.12 | -0.496 ± 0.14
GGGGAGCAAUAUUACGUCGG | – | -1.07 ± 0.36
GUCCAGCAAUAUUACGUAAA | -0.484 ± 0.081 | 0.338 ± 0.12
UACAAGCAAUAUUACGCGAG | -1.62 ± 0.11 | -0.536 ± 0.1
UACGAGCAAUAUUACGGUCG | -0.828 ± 0.076 | -0.0425 ± 0.099
GCUCAGCAAUAUUACGUAAA | -0.495 ± 0.064 | 0.264 ± 0.086
CAUCAGCAAUAUUACGGCAA | -3.37 ± 0.21 | -2.1 ± 0.2
GCGUAGCAAUAUUACGGCCC | 0.00127 ± 0.32 | -2.25 ± 0.39
CGUCAGCAAUAUUACGCUCU | -1.14 ± 0.12 | -0.257 ± 0.12
UCUAAGCAAUAUUACGAGGU | -2.8 ± 0.27 | -0.819 ± 0.17
AUUGAGCAAUAUUACGUAGA | -2.86 ± 0.26 | -2.38 ± 0.42
GAAAAGCAAUAUUACGAGCC | -1.38 ± 0.19 | -0.409 ± 0.18

Sequence | self-splicing fitness (ln) (30 °C) | self-splicing fitness (ln) (37 °C)
AGUAAGCAAUAUUACGUUAU | -3.25 ± 0.23 | -2.18 ± 0.18
AGGAAGCAAUAUUACGUUGC | -3.23 ± 0.37 | -1.29 ± 0.41
GUAUAGCAAUAUUACGAGCU | -2.42 ± 0.27 | -1.61 ± 0.3
UGUAAGCAAUAUUACGUUCA | -0.719 ± 0.1 | -0.118 ± 0.14
CCUCAGCAAUAUUACGACGU | -3.17 ± 0.18 | -2.68 ± 0.24
AGCAAGCAAUAUUACGAGUU | -2.98 ± 0.16 | -1.55 ± 0.16
GGAUAGCAAUAUUACGCUGU | -1.65 ± 0.25 | -2.68 ± 0.38
GCGUAGCAAUAUUACGUGCG | -4.01 ± 0.17 | -1.62 ± 0.14
CAUGAGCAAUAUUACGACGA | -2.3 ± 0.3 | -1.85 ± 0.21
CUUGAGCAAUAUUACGGUCA | -1.65 ± 0.18 | -3.58 ± 0.46
CCCGAGCAAUAUUACGGGCU | -3.98 ± 0.26 | -2.65 ± 0.21
UCUCAGCAAUAUUACGACUA | -1.87 ± 0.12 | -1.37 ± 0.12
CUUCAGCAAUAUUACGUAUC | -4.15 ± 0.27 | -2.48 ± 0.23
ACAGAGCAAUAUUACGUACG | -3.9 ± 0.23 | -2.3 ± 0.2
ACAAAGCAAUAUUACGGGAC | -3.25 ± 0.17 | -1.96 ± 0.14
GCCAAGCAAUAUUACGAGGA | -1.37 ± 0.1 | -0.561 ± 0.1
CUUAAGCAAUAUUACGCAGA | -3.41 ± 0.36 | -1.93 ± 0.24
ACCUAGCAAUAUUACGCAAG | -2.73 ± 0.15 | -2.2 ± 0.18
GGGGAGCAAUAUUACGUACA | -1.75 ± 0.2 | -1.76 ± 0.49
UAUCAGCAAUAUUACGUGCC | -4.21 ± 0.34 | -1.95 ± 0.16
UCUGAGCAAUAUUACGUACC | -3.19 ± 0.41 | -1.96 ± 0.31
